Measured values taken from US20260242485A1 (LEPU BIOPHARMA, published 2026).

Experiments:
[1] = molecular target: T1, human GPC3 on HepG2 cells (human, UniProt P51654 25-554); experiment: flow cytometry, HepG2 cells (GPC3 positive), geometric mean
T1 construct: whole, on cells; also called GPC3-positive HepG2 cells

[2] = molecular target: T2, human CD16A-158F expressed on CHO-K1 cells (human, UniProt P08637 17-254); experiment: flow cytometry, CHO-K1-hCD16A-158F cells, geometric mean
T2 construct: whole, on cells

[3] = molecular target: T3, human CD16A-158V expressed on CHO-K1 cells (human, UniProt P08637 17-254); experiment: flow cytometry, CHO-K1-hCD16A-158V cells, geometric mean
T3 construct: whole, on cells; also called hCD16A-158V; CHO-K1-hCD16A-158V
Text: (§1) The purpose of the assay was to evaluate the binding of BsAb to each of the hFcγRs.

[4] = molecular target: T2, human CD16A-158F expressed on CHO-K1 …; experiment: flow cytometry, CHO-K1-hCD16A-158F cells, geometric mean; remark: listed apart in the source
Text: as §1

[5] = molecular target: T3, human CD16A-158V expressed on CHO-K1 …; experiment: flow cytometry, CHO-K1-hCD16A-158V cells, geometric mean; remark: listed apart in the source
Experimental: (§2) In order to evaluate the binding activity of the chimeric mAbs to human CD16A expressed on cells, cell-based binding assay was employed as followed. […] The antibody dilutions were incubated with 1×10⁵ indicated cells in the 96-well microplate for one hour at 4° C. The antibodies binding to the antigen on the cell surface were detected with PE fluorophore-conjugated anti-human IgG Fc secondary antibodies (ThermoFisher scientific, Cat. No. 12-4998-82) at a dilution rate of 1:1000. Cells were analyzed by flow cytometer LSRFortessa Cell Analyzer (BD Biosciences). Data were analyzed with Flowjo 10.0 software. The graph and statistics analysis were generated with four-parameter nonlinear regression curve fit in Graphpad Prism 9 software.
(§3) The assay was performed following the protocol described above.

[6] = molecular target: T4, cynomolgus CD16 expressed on CHO-K1 cells (cynomolgus, UniProt Q8SPW2 17-254); experiment: flow cytometry, CHO-K1-cyno CD16 cells, Alexa Fluor 647 anti-human IgG Fc, geometric mean
T4 construct: whole, on cells; also called cyno CD16; CHO-K1-cynoCD16
Experimental: as §2
(§4) The assay was performed following the protocol described above. The antibodies binding to the antigen on the cell surface were detected with Alexa Fluor® 647 AffiniPure™ F(ab′)₂ fragment goat anti-human IgG Fcγ fragment specific secondary antibody (Jackson Immuno Research, Cat. No. 109-606-098) at a dilution rate of 1:2000.

[7] = molecular target: T2, human CD16A-158F expressed on CHO-K1 …; experiment: flow cytometry, CHO-K1-hCD16A-158F cells, geometric mean; remark: listed apart in the source
Experimental: as §2, §3

[8] = molecular target: T4, cynomolgus CD16 expressed on CHO-K1 …; experiment: flow cytometry, CHO-K1-cyno CD16 cells, geometric mean
Experimental: as §2, §3

[9] = molecular target: T2, human CD16A-158F expressed on CHO-K1 …; experiment: flow cytometry, CHO-K1-hCD16A-158F cells, Alexa Fluor 647 anti-human IgG Fc, geometric mean
Experimental: as §2, §4

[10] = molecular target: T3, human CD16A-158V expressed on CHO-K1 …; experiment: flow cytometry, CHO-K1-hCD16A-158V cells, Alexa Fluor 647 anti-human IgG Fc, geometric mean
Experimental: as §2, §4

T1 sequence (P51654 25-554 limits assumed): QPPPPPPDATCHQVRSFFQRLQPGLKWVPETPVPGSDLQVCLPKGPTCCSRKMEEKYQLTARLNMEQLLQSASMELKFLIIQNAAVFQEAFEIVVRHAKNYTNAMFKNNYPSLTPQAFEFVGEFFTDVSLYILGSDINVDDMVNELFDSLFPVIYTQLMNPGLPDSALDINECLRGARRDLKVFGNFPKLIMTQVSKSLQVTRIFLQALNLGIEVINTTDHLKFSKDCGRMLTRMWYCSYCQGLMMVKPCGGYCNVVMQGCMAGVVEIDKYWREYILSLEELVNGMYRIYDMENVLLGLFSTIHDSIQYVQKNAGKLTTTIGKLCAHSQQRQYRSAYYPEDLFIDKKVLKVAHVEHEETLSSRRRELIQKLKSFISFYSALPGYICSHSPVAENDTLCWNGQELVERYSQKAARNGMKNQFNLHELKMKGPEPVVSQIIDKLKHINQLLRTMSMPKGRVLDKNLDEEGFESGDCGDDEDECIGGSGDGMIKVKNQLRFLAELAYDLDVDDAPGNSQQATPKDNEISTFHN
T2 sequence (P08637 17-254): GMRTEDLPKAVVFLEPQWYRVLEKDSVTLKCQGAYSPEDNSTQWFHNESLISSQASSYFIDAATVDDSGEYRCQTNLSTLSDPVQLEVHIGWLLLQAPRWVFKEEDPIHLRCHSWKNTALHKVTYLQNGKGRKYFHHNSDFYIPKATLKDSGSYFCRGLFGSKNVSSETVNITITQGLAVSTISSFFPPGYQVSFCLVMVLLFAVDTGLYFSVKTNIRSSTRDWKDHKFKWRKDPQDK
T3 sequence (P08637 17-254 F176V): as the sequence (P08637 17-254) above, with F160V counted along it
T4 sequence (Q8SPW2 17-254): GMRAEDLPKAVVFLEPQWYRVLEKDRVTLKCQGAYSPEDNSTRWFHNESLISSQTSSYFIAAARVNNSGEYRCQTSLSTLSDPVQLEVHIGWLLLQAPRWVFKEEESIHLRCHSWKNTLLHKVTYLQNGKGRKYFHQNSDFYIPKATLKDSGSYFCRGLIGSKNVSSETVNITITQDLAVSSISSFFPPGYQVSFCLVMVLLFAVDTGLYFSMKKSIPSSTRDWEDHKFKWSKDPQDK

B1: GPC3-hIgG1DE (antibody)
chain 1: not shown
chain 2: DIVMTQTPLSLSVTPGQPASISCRSSQSLVHSNGNTYLQWYLQKPGQSPQLLIYKVSNRFSGVPDRFSGSGSGTDFTLKISRVEAEDVGVYYCFQSIHVPYTFGGGTKLEIKRTVAAPSVFIFPPSDEQLKSGTASVVCLLNNFYPREAKVQWKVDNALQSGNSQESVTEQDSKDSTYSLSSTLTLSKADYEKHKVYACEVTHQGLSSPVTKSFNRGEC
- EC50 (read off the curve) [1]: ~0.3 nM

B2: GPC3-hIgG1 (antibody)
heavy: not shown
light: DIVMTQTPLSLSVTPGQPASISCRSSQSLVHSNGNTYLQWYLQKPGQSPQLLIYKVSNRFSGVPDRFSGSGSGTDFTLKISRVEAEDVGVYYCFQSIHVPYTFGGGTKLEIKRTVAAPSVFIFPPSDEQLKSGTASVVCLLNNFYPREAKVQWKVDNALQSGNSQESVTEQDSKDSTYSLSSTLTLSKADYEKHKVYACEVTHQGLSSPVTKSFNRGEC
notes: also called GPC3-hIgG1 mAb with wild-type Fc region
- EC50 (read off the curve) [1]: ~0.3 nM
- binding result [2]: no binding (tested: 100 nM)

B3: CCR8-hIgG1 mAb (antibody)
VH: not shown
VL: DIVMTQSPLSLPVTPGEPASISCRSSKSLLHSNANTYLYWYLQKPGQSPQLLIYRMSNLASGVPDRFSGSGSGTAFTLKISRVEAEDVGVYYCMQHLEYPFTFGGGTKLEIKRTVAAPSVFIFPPSDEQLKSGTASVVCLLNNFYPREAKVQWKVDNALQSGNSQESVTEQDSKDSTYSLSSTLTLSKADYEKHKVYACEVTHQGLSSPVTKSFNRGEC
notes: Wildtype human IgG1; also called anti-hCCR8 monoclonal antibody with wildtype Fc hIgG1
- EC50 [3]: 5.2 nM
- EC50 [4]: 20 nM

B4: CCR8-45H6E8-hIgG1LALAPG (bispecific antibody)
heavy: EVQLVESGGGLVQPGGSLRLSCAASGFSFNTYVMNWVRQAPGKGLEWVARIRTKSNNYATFYVDSVKDRFTISRDDSKNSLYLQMNSLKTEDTAVYYCVSGTITRLGAGLDYWGQGTLVTVSSASTKGPSVFPLAPSSKSTSGGTAALGCLVKDYFPEPVTVSWNSGALTSGVHTFPAVLQSSGLYSLSSVVTVPSSSLGTQTYICNVNHKPSNTKVDKKVEPKSCDKTHTCPPCPAPEAAGGPSVFLFPPKPKDTLMISRTPEVTCVVVDVSHEDPEVKFNWYVDGVEVHNAKTKPREEQYNSTYRVVSVLTVLHQDWLNGKEYKCKVSNKALGAPIEKTISKAKGQPREPQVYTLPPSREEMTKNQVSLTCLVKGFYPSDIAVEWESNGQPENNYKTTPPVLDSDGSFFLYSKLTVDKSRWQQGNVFSCSVMHEALHNHYTQKSLSLSPGKGGGGSGGGGSGGGGSEVQLQQSGAELVRSGASVKLSCTASGFNIKDYYMQWVKQRPEQGLEWIGWIDPENGDTEYAPKFQGKATMTADTSSNTAYLQLSSLTSEDTAVYYCTTGGNYVDWGQGTTLTVSSGGGGSGGGGSGGGGSDIVMTQSQKFMSTSVGDRVSITCKASQNVGTAVAWYQQKPGQSPKLLIYSASNRYTGVPDRFTGSGSGTDFTLTISNMQSEDLADYFCQQYSSYPLLTFGAGTNLELK
light: DIVMTQSPLSLPVTPGEPASISCRSSKSLLHSNANTYLYWYLQKPGQSPQLLIYRMSNLASGVPDRFSGSGSGTAFTLKISRVEAEDVGVYYCMQHLEYPFTFGGGTKLEIKRTVAAPSVFIFPPSDEQLKSGTASVVCLLNNFYPREAKVQWKVDNALQSGNSQESVTEQDSKDSTYSLSSTLTLSKADYEKHKVYACEVTHQGLSSPVTKSFNRGEC
notes: to be checked; also called CCR8-45H6E8-hIgG1LALAPG BsAb; CCR8-45H6E8 LALAPG BsAb
- EC50 [3]: 0.57 nM
- EC50 [4]: 0.29 nM

B5: 45H6E8-z21 (antibody, human IgG1, V domains shown)
VH: QVQLVQSGAEVKKPGASVKVSCKVSGYTLTDYYMQWVRQAPGKGLEWMGWIDPENGDTEYAPKFQGRVTMTADTSTDTAYMELSSLRSEDTAVYYCTTGGNYVDWGQGTTVTVSS
VL: DIQMTQSPSFLSASVGDRVTITCKASQNVGTAVAWYQQKPGKAPKLLIYSASNRYTGVPDRFSGSGSGTDFTLTISSLQPEDFATYFCQQYSSYPLLTFGQGTRLEIK
notes: Human IgG1 LALAPG constant region; also called HU-VH1-8 / HU-VL1-3
- EC50 (read off the curve) [5]: ~0.4 nM
- EC50 (read off the curve) [6]: ~1 nM
- EC50 (read off the curve) [7]: ~0.4 nM
- EC50 (read off the curve) [8]: ~0.7 nM
- EC50 (read off the curve) [9]: ~0.4 nM
- EC50 (read off the curve) [10]: ~0.4 nM

B6: 45H6E8-z21p1 (antibody, V domains shown)
VH: QVQLVQSGAEVKKPGASVKVSCKVSGYTLTDYYMQWVRQAPGKGLEWMGWIDPEQGDTEYAPKFQGRVTMTADTSTDTAYMELSSLRSEDTAVYYCTTGGNYVDWGQGTTVTVSS
VL: DIQMTQSPSFLSASVGDRVTITCKASQNVGTAVAWYQQKPGKAPKLLIYSASNRYTGVPDRFSGSGSGTDFTLTISSLQPEDFATYFCQQYSSYPLLTFGQGTRLEIK
notes: PTM-removed version of z21
- binding result [1]: no binding (tested: 100 nM)
